According to a protein production outcome set (Wang et al. 2014):

Test: label from the status in PepcDB records
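Note: failed if final PepcDB status was selected cloned or expressed and not failed if soluble or beyond.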

**Q.** With “MKTTIQTITLILGLFISSLAIASPEFPTQEPMGGKTFGHSVKHVGNGIYVFRWWVYRNFFVVTDDGVIVSDPLNPKAAKLLQSEIRKITDKPVKYVVYSHNHHDHISGGNIFKAEGAKFIGHKNLLKQLKDHPSPVLPIPDIVFEDTYTLTLGNRTLELSYFGPNHGDSLVVMRFPKEKILFVVDIVTPRRVAFRGMPDFWPDEWVRSLKEIELMDVDYVISAHGPENQPAIDPASVIKEQRVYIEDLMAAVKLKMDEGVHSPDALRKQVKLPKYEHWQYYEQWLPMNIERIWAYYHMGW” as the sequence, how does the protein production read?
**A.** failed

**Q.** With “MKTTLLKTLTPELHLVQHNDIPVPSLKTCGWNTKNFPCKGHSLSVGXPQNAKQDVLWLSEVEPFKNGNAIRGGVPICYPWFGGVKQPAHGTARIRLWQLSHYYISVHKVRLEFELFSDLNIIEAKVSMVFTDKCHLTFTHYGEESAQAALHTYFNIGDINQVEVQGLPETCFNSLNQQQENVPSPRHISENVDCIYSAENMQNQILDKSFNRTIALHHHNASQFVLWNPWHKKTSGMSETGYQKMLCLETARIHHLLEFGESLSVEISLKG” as the sequence, how does the protein production read?
**A.** not failed

**Q.** With “MKTTPDILDQIRVHGADAYPEEGCGFLLGTVTDDGDNRVAALHRATNRRSEQRTRRYELTADDYRAADAAAQEQGLDVVGVYHSHPDHPARPSATDLEEATFPGFTYVIVSVRDGAPEALTAWALAPDRSEFHREDIVRPDPEAPLEHHHHHH” as the sequence, how does the protein production read?
**A.** failed

**Q.** With “MKTWFKYIKLLLLSVCTFLLVTGCNSNVSKLPSNQTTSNITTNCRVINHEAGKTQICGQPKKVVALSPPVLDMMLALGVQPAGYAEVDLLNSKVFDRPKEQIPYLGDRITSQPMNVGDRGNPSLESLLQLKPDLILGEASYNETEYQILNKIAPTILISHRDGITPAWQQTISIIAQALGREDKVPTVIAEYEQKLSQAKTAIAPIAQHQELLLLAFRGITLTSFTFGAETFAGGLLQDLGFKLVSPESTEYEVALEVLPKFKSDLIVIMPSGNNNIENAKRQWSQNPILQSISAHNTNRIYFIDYQLASRIRGPIAAELFVNQVRQLLS” as the sequence, how does the protein production read?
**A.** failed

**Q.** With “MKVDVDEKTYIITMANDITKLYEENKRNLHYSITDPLTGAYNRKYLNDRFDIFIGDYIVLIDLDNFKMINDYEGHNVGDKILCDFVSLLNKELINSTSIIRLGGDEFIVIFSSDVDKNYVYSQLEALRENFLKVFSKYKYLSFSYGVDTVKRNLKLTIVELDKKMYKNKEKLEHHHHHH” as the sequence, how does the protein production read?
**A.** failed

**Q.** With “MKVELTAIEARVIGCLIEKEVTTPDQYPLSLNALTNASNQKSNREPVMALSESDVLDAVDALIERRLVSDESAFNSRVSKYQHRFCNTEFGDLKLSEQEKGIICCMLLRGAQTPGEIRTRTNRLATFHDVKEVEAVLEHLASEEKGPLVVKLPREAGKRESRYMHLFCGEVDVSAMAAAVPATSSSSVRIAQLEQEVAELREELDALKAQVESLLS” as the sequence, how does the protein production read?
**A.** not failed

**Q.** Which protein production does the source give for “MKVERRTIEYIPNEERHGKAKDLFPVWFGANMHITTLVTGTIPVAMGLNLFWSVAAIICGTLIGAIFMASHSAQGPQLGIPQMIQSRAQFGVIGAILPLFLVMFIYLGFFASSTILAAGTLSSFVPIPGSWSIIGLSAVCFLLTIFGHDLIHKMQKILSWTSFAVFFAATILIFQLPIPAGSWIPGAIDLPIFLVAVSAVATWQLAYAPYVADYSRYLPVKTPASKTFWYSYAGTSVSSIWMMLLGALLTTSLPDFTANSGSQIVQLFGPFSFIMLIIVLFGQMAINVFNLYGAFMSTTTTLEPFLKLKVTPKVRIIMILGVTLVGTVLSLLGQSNFMELFLNFIFFISYFLIPWTAINLVDYYFVRHGKYQVKAMFDVNGPYGKVNWITTIAFVLSILLEIPFINTSFYIGPLAKMFGGGDIAWIIGLAVPSVLYYVLMKPRLKKRAGYQEKLSSL” here?
**A.** failed

**Q.** For “MKVIICGAGQVGYGIAEQLSREDNEVSVIDTAAPLITAITETLDVRGYVGHGAHPDMLAKAGADQADMIIAVTLHDEINIVACEVAHALFSVPTKIARIRDQSYMKPEYADLFSRENMSIDVTISPEVEVGKMVLRRIAFPGATDVVRFAEDTIYMLAIECMEDCPVINTPLQQLSSLFPDLIATVVGVYRDGILKVAHSSEQLRVGDLAYVICQRQHARRTLSLFGHEEQEAQRIVIAGAGNIGHFVAHKIEEMQSKTRVKIIEADRDRAIAASEQLSHTIVMHGSALDQKILMQADIQDADLIVTLTNNDQTNILAAVIAKQLGCKSNLALLNSTSFHDVARSLGLDAYINPRAVTISRVLQHVRKGRIRSVYAVQRGSAEVIEAEALETSPLVGQSFRDIDMPDGVRIGAIYRDGVVIRPDGSTKIKAKDRVVLFASADAVRDVEQLFRVSIQYF”, which protein production is on record?
**A.** failed

**Q.** Which protein production does the source give for “MKVILVNGSPHKDGCTFTALEEVAKALNEEGIDTEFFHLGTKPLNGCIACGHCRKHQRCVFPDSVNEFLDLAQEADGFIFGSPVHYAAAGGAITSFLDRVFYTDSGSGKQAFYLKPAAAVVSARRAGTTASLDQLNRYFTIKEMPIISSKYWNMVHGNTPEEVRKDEEGLQIMRTLGRNMAWFLKCKEAGIRAGIPFPSQEEGLRTNFIRLEHHHHHH” here?
**A.** not failed

**Q.** With “MKVKDVCKLISLKPTVVEEDTPIEEIVDRILEDPVTRTVYVARDNKLVGMIPVMHLLKVSGFHFFGFIPKEELIRSSMKRLIAKNASEIMLDPVYVHMDTPLEEALKLMIDNNIQEMPVVDEKGEIVGDLNSLEILLALWKGREK” as the sequence, how does the protein production read?
**A.** not failed

**Q.** With “MKVKIYTRNGCPYCVWAKQWFEENNIAFDETIIDDYAQRSKFYDEMNQSGKVIFPISTVPQIFIDDEHIGGFTELKANADKILNKK” as the sequence, how does the protein production read?
**A.** not failed

**Q.** For “MKVKLFAIHLFFIVISFGIKYYHLQGPNLIWNMTLALIALDFAYLTSLFKKKILIGLFALAWFFFYPNTFYMLTDIIHMHFVGDVLYNKTNLILYILYVSSILFGFLSGIESFSVIMRKFRISNIFLRWGIIGIVSLVSSFGIHIGRYARLNSWDILTKPQVVINELLAVPSRDSFHFILGFTFLQVLCLIFMDYSAGKKLEK”, which protein production is on record?
**A.** failed

**Q.** For “MKVLFIHPFGSNWLGTGTDITTIFNLMPPLGLLSIAAFLEARGIGTEVIDCYATPMPAETLVAEVIRRRPDVVGFSCTTSSFLEGYSIAERIKEKAPGITTVFGGAHACSVGVGLLDTFPAIDYLVIGEGEQTFFELVTNLDHGGSGIPGVGYRENGKGVISALREHIANLDDLPFPAYHRLPQFPKRYILPLFSYPKAPNTSIISSRGCPYQCSYCDRSVFSRGFRFNSPEYIVEHLKMLNRDYGIRHVFFYDDLFTTDRARVARFCELKERERLPVTYNCIARLEHVDAELLRLLKRSGCWQVNFGIESGDPEVIKKHRKFYGLDEVQRKLQLVRDTGMRVKGLFMVGLPGETEESIRRTIDYALALPLDEINVTKFTPFPGAPLYATIREQGEFDENWPLMNCLNFVFVPHGMTREQLEGLYNEFISRFYRRSRIHWGYTKMLWKSPHSVATFLRHLPEILAFELKQKW”, which protein production is on record?
**A.** failed

**Q.** With “MKVLITDFDLFAKVGGGQTFYRSLIRKNPDIDFYYLIDKEARVTERPDNAHGVPFQEKYFLADLNNFFDVNPPKWVYRSFIRASNIATSVAGMEFDLIDSPDYEQWAIFLRPALDYHRVKFAKIALSLHGKISTTLKLDWFNQGKENIPLELEEWKQYATVDLRYGISKSYIDEWQSLSRFSAHYYHPLHFFELPQPLEAIASGDRPDLNFVGRTEKRKGPDIFIDIAWWLNRNLYHEANIIGPHSFNDTGTISSETYLRSMLGDRQSPVKFLPPKPQQELMGLFARKTVTFVPSRYDTLNLVALESLFSGCPTVVGGGAGVCRLLKEDFPDVPFVEIDLDNIYSCLPAIENILSDYNNYRRRLVDSVKNSTAIADSPILADIYQQTGQYEEEIRDELQSWYGQLMGYWVSTQENVSFLQPLKAQLKPTLKQIKNNLKSTAGQLKGKILQPLADDRNAQLVKAPNLLKKYKEAFNATEQTAKDLAEKIQMGWRLGSGYESEFQGVRGKLATNYRIDRVRLWRELARIEELRGNTLVSATYKVRALRALGSDQFGDLPFVLRTLTEYGFPKEMAAVSALYGQPSEREERCLSLIEQARLDNLANPAGDEYEIWDDRRGDGPYRASIIVSLYNAAAKLPLFLKTLQHQTLIKRGEAEVVLVDSGSPGNEYEVFKDLAPTLGYPLLYARSPQRETIQSAWNRGIKLAKSPYLAFLGVDETILPDCLEILAGELDQDPELDWAIGHSLVTNVDMQGGWVSDIMPYDRTGYEQDLVYLETCYLSWVGALYRKSIHERFGYYDQSFRGAGDTEFKNRVMPFIKSKVVDKMLGLFWNYPDERTTQSPATEIEDMRAWYLHRTLAGVKYAFQRRSPREVENLLYHCLGYRKSYCKHTSTDFDHAHNLVTYLEKVDPNAEALKYAPGIEALLGTYRSLDWLPKLSKFSPLNSMLTARKLTKQWEQEHQQSWPEDRLFSPHYSIFNDNRHEQHSFLWFTDITASKK” as the sequence, how does the protein production read?
**A.** failed

**Q.** For “MKVLLIIPAYNEEENILRTIASIETFKQEVTHFQHELDYVVINDGSTDGTKQILEANQINAIHLVLNLGIGGAVQTGYKYALENEYDVAVQFDGDGQHDINSLPILLEPLAEGKCDFSIGSRFIPGNEASFQSTKMRRFGIRLLSFCIRMASGKTIYDVTSGYRAGNRKVIAFFAKRYPTNYPEPESIVHLIKKRFVIVERPVNMMERLGGVSSIRALASVKYMLEVGSAILIAAFMKEGDLEHHHHHH”, which protein production is on record?
**A.** not failed

**Q.** Which protein production does the source give for “MKVLTVVIPCYNSAEYMDRAIESLLIGDEELEILIVNDGSMDNTSIIADEYEKKYPNTIRVIHKENGGHGDAINTGLKHSKGVYFKVLDSDDWFDKASLKKVLEVLKNMIKDSKSLDMLISNYVYENFSINKSRSINYKGAMPKEKIFTWDSLGHLKSSQNILMHSVIYRTELLRECNLDLPKHTFYVDNIFVYKPLPYVKTMYYLDVDLYRYFIGREDQSVNEKVMIKRIDQQIKVTKILIDCYNPMLLNCKKLRKYMVKYLVMMMTVSTVLLIKDNTEQSLNKKRELWSYLHSKNRKLYFEVNKSFLGLLIQIKGFVGRKIILLGYSLSRKVFGFNLEHHHHHH” here?
**A.** failed

**Q.** Which protein production does the source give for “MKVNILMATYNGEKFLAQQIESIQKQTFKEWNLLIRDDGSSDKTCDIIRNFTAKDSRIRFINENEHHNLGVIKSFFTLVNYEVADFYFFSDQDDVWLPEKLSVSLEAAKHKASDVPLLVYTDLKVVNQELNILQDSMIRAQSHHANTTLLPELTENTVTGGTMMINHALAEKWFTPNDILMHDWFLALLAASLGEIIYLDLPTQLYRQHDNNVLGARTMDKRFKILREGPKSIFTRYWKLIHDSQKQASLIVDKYGDIMTANDLELIKCFIKIDKQPFMTRLRWLWKYGYSKNQFKHQVVFKWLIATNYYNKRLEHHHHHH” here?
**A.** not failed

**Q.** Which protein production does the source give for “MKVPEAAISRLITYLRILEELEAQGVHRTSSEQLGELAQVTAFQVRKDLSYFGSYGTRGVGYTVPVLKRELRHILGLNRKWGLCIVGMGRLGSALADYPGFGESFELRGFFDVDPEKVGRPVRGGVIEHVDLLPQRVPGRIEIALLTVPREAAQKAADLLVAAGIKGILNFAPVVLEVPKEVAVENVDFLAGLTRLSFAILNPKWREEMMG” here?
**A.** not failed

**Q.** Which protein production does the source give for “MKVPKYQLIQNDLRQQIVSGKFENGDKFYTESELTKLFNVSSITVIRAVNELVKDGYLVRQQGKGTFVSRSRKGRLVEFSDIEIFPMDKDKVTVLSCEKGNKPDILEKLNLDKNEFYYKIVRVRAAEDTPYIFHNSYIPQRYIQNPDAPLEHYQSIYQRFKLDYNIHMSEEPFVETNEIVSPCPKEVATHLKLKATEPAVLQNKTTTNSTSGEVMEYTETYKHWKYYKFEITANHR” here?
**A.** not failed
